Experimental findings from PMC5085265 are described below.

The term stoichiometry N denotes a count of units in the complex or per binding partner.

The target in assay [1] is ^C38/C81/C96R1 (triple Cys mutant of the cytochrome cb562 variant RIDC1). The assay is described as follows: AUC.
Assay [2] shares this target.
Assay [3] concerns the target ^C38/C81/C96M1 (variant lacking the hydrophobic mutations) (UniProt P0ABE7).

On to “^C38/C81/C96R1 (triple Cys mutant of the cytochrome cb562 variant RIDC1)”, for which, in assay [1], the stoichiometry N was 4. Besides, in assay [2], the yield of the tetrameric species stood at 47% and the yield of the tetrameric species with 1.5-fold molar excess of Zn2+ turned out to be 53%.
“^C38/C81/C96M1 (variant lacking the hydrophobic mutations) (from UniProt P0ABE7 23-128)” had a yield of the tetrameric species in assay [3] of 16%.
